B1: p47phox PX domain (truncated p47phox, residues 2–132) (domain or fragment)
chain: GDTFIRHIALLGFEKRFVPSQHYVYMFLVKWQDLSEKVVYRRFTEIYEFHKTLKEMFPIEAGAINPENRIIPHLPAPKWFDGQRAAENRQGTLTEYCSTLMSLPTKISRCPHLLDFFKVRPDDLKLPTDNQ

Experiments:
[1] = target: recombinant PCNA (proliferating cell nuclear antigen) (human) (UniProt P12004); experiment: SPR
[2] = target: recombinant PCNA (proliferating cell nuclear antigen) (human, UniProt P12004 1-261); experiment: SPR

| Molecule | Kd [1] [µM] | k (backward) (two-state model, second step) [1] [s⁻¹] | k (forward) (two-state model, second step) [1] [s⁻¹] | ka1 (two-state model, first step) [1] [M⁻¹ s⁻¹] | kd1 (two-state model, first step) [1] [s⁻¹] | Kd [2] [µM] | kon [2] [M⁻¹ s⁻¹] |
| --- | --- | --- | --- | --- | --- | --- | --- |
| recombinant human Rac2 (from UniProt P15153 1-192) (natural protein; other documents disagree on this pair) | 3.3 | 0.00066 | 0.0057 | 541 | 0.017 |  |  |
| B1 |  |  |  |  |  | 33 | 85.2 |
